The values below come from US20120316071A1 (published 2012).

Assay [1] concerns the target T1, rHuman P-Cadherin/Fc Chimera, CF (R&D Systems Cat#861-PC) (human, UniProt P22223 108-654).
T1 construct: Bought recombinant protein; Fc part of the bought chimera not given
The experiment in a line: ECL multispot (MSD) assay, spotted antigen; Fab 2.00 (head prints uM).

The target of assay [2] is T2, rHuman ErbB2/Fc Chimera, CF (R&D Systems Cat#1129-ER) (human, UniProt P04626 23-652).
T2 construct: Bought recombinant protein; Fc part of the bought chimera not given
The assay is described as above.

In assay [3] the target is T3, rHuman CD44/Fc Chimera, CF (R&D Systems Cat#3660-CD) (human, UniProt P16070 21-220).
T3 construct: Bought recombinant protein; Fc part of the bought chimera not given
Described as above.

Assay [4] concerns the target T4, rHuman IGF-1 sR, CF (R&D Systems Cat#391-GR) (human, UniProt P08069 31-932).
T4 construct: Bought recombinant soluble receptor; also called insulin-like growth factor-1 soluble receptor
Put plainly: ECL Multispot (MSD), antigen spotted; Fab 50 (µM); blank 386.

For assay [5], the target named is T5, rHuman Notch-1/Fc Chimera, CF (R&D Systems Cat#3647-TK) (human, UniProt P46531 19-526).
T5 construct: Bought recombinant protein; Fc part of the bought chimera not given
The description is as above.

For assay [6], the target named is T6, Recombinant Human DLL4 (R&D Systems Cat#1506-D4/CF) (human, UniProt Q9NR61 27-529).
T6 construct: Bought recombinant protein; also called delta-like protein 4; rHuman DLL4
The description is as above.

Assay [7] addresses T7, rHuman Erythropoietin R/Fc Chimera, CF (R&D Systems Cat#963-ER) (human, UniProt P19235 25-250).
T7 construct: Bought recombinant protein; also called EPO R; EPO R/Fc; Fc part of the bought chimera not given
T7 sequence (looked up): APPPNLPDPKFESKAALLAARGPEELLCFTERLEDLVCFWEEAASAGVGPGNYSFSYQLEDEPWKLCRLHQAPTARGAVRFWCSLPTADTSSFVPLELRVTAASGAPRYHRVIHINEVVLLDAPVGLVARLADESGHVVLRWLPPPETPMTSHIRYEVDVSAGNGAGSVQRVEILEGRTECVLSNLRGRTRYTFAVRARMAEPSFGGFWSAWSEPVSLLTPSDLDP
The assay is described as above.

Assay [8] has as its target T8, rHuman P-Cadherin/Fc Chimera, CF (R&D Systems Cat#861-PC) (human, UniProt P22223 108-654).
T8 construct: Bought Fc chimera; Fc part of the bought chimera not given
Put plainly: Multispot ECL (MSD) titration; antigen spotted on plate; Fab 930 nM; blank spot 1206.

Assay [9] deals with T9, rHuman Notch-1/Fc Chimera, CF (R&D Systems Cat#3647-TK) (human, UniProt P46531 19-526).
T9 construct: Bought Fc chimera; Fc part of the bought chimera not given
Described as above.

The target in assay [10] is T10, rHuman IGF-1 sR (IGF-1 sR), CF (R&D Systems Cat#391-GR) (human, UniProt P08069 31-932).
T10 construct: Bought soluble receptor; also called insulin-like growth factor-1 soluble receptor
Described as above.

The target in assay [11] is T11, rHuman Erythropoietin R/Fc Chimera, CF (R&D Systems Cat#963-ER) (human, UniProt P19235 25-250).
T11 construct: Bought Fc chimera; also called EPO R/Fc; EPO R; Fc part of the bought chimera not given
T11 sequence (looked up): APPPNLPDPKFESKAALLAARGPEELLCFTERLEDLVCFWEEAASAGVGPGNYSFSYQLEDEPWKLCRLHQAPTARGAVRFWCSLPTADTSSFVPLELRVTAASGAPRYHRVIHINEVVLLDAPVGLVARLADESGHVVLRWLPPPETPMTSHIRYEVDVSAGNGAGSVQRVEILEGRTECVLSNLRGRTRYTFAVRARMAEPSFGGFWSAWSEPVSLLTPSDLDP
Described as above.

In assay [12] the target is T12, Recombinant Human DLL4 (R&D Systems Cat#1506-D4/CF) (human, UniProt Q9NR61 27-524).
T12 construct: Bought recombinant protein; also called delta-like protein 4; rHuman DLL4
The assay is described as above.

Assay [13] deals with T13, rHuman ErbB2/Fc Chimera, CF (R&D Systems Cat#1129-ER) (human, UniProt P04626 23-652).
T13 construct: Bought Fc chimera; also called human epidermal growth factor 2 receptor; Fc part of the bought chimera not given
Described as above.

The target of assay [14] is T14, rHuman CD44/Fc Chimera, CF (R&D Systems Cat#3660-CD) (human, UniProt P16070 21-220).
T14 construct: Bought Fc chimera; Fc part of the bought chimera not given
The description is as above.

For assay [15], the target named is T15, rHuman CD44/Fc Chimera, CF (R&D Systems Cat#3660-CD) (human, UniProt P16070 21-220).
T15 construct: Bought Fc chimera; Fc part of the bought chimera not given
The experiment in a line: MSD Multispot ECL, antigen spotted on plate, Fab at 15 nM; blank spot 261.

Assay [16] has as its target T16, rHuman Erythropoietin R/Fc Chimera, CF (R&D Systems Cat#963-ER) (human, UniProt P19235 25-250).
T16 construct: Bought Fc chimera; also called EPO R/Fc; Epo R; Fc part of the bought chimera not given
T16 sequence (looked up): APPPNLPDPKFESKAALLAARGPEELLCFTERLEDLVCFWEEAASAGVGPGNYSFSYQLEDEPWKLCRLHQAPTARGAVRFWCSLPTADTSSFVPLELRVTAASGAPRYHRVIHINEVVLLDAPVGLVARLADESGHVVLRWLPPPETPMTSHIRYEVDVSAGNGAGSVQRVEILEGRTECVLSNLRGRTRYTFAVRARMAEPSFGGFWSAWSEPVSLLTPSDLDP
The description is as above.

Assay [17] deals with T17, rHuman P-Cadherin/Fc Chimera, CF (R&D Systems Cat#861-PC) (human, UniProt P22223 108-654).
T17 construct: Bought Fc chimera; Fc part of the bought chimera not given
The description is as above.

The target of assay [18] is T18, Recombinant Human DLL4 (R&D Systems Cat#1506-D4/CF) (human, UniProt Q9NR61 27-524).
T18 construct: Bought recombinant protein; also called rHuman DLL4; delta-like protein 4
Described as above.

Assay [19] has as its target T19, rHuman Notch-1/Fc Chimera, CF (R&D Systems Cat#3647-TK) (human, UniProt P46531 19-526).
T19 construct: Bought Fc chimera; Fc part of the bought chimera not given
The description is as above.

B1: Fab VH5-51_IGHD5-18*01>3_IGHJ4*01 G100K/G104T & V3-4_IGLJ1*01 (Fab, V domains shown)
VH: EVQLVQSGAEVKKPGESLKISCKGSGYSFTSYWIGWVRQMPGKGLEWMGIIYPGDSDTRYSPSFQGQVTISADKSISTAYLQWSSLKASDTAMYYCARRKYSYTYDYFDYWGQGTLVTVSS
VL: QTVVTQEPSFSVSPGGTVTLTCGLSSGSVSTSYYPSWYQQTPGQAPRTLIYSTNTRSSGVPDRFSGSILGNKAALTITGAQADDESDYYCVLYMGSGISYVFGTGTKVTVL
notes: Tested as a Fab; The constant parts are the same as for the parent Fab (CH1 with His6/Flag tags, lambda CL); also called KT double mutant; H:KT
As for B1, the ECL signal/noise ratio in assay [1] is 4.3; in [2], 3.2; in assay [3] it was 3.5.

B2: Fab VH1-46_IGHD6-6*01_IGHJ1*01 S102A/S103P/S104F (APF) & L6_IGKJ1*01 (Fab, V domains shown)
VH: QVQLVQSGAEVKKPGASVKVSCKASGYTFTSYYMHWVRQAPGQGLEWMGIINPSGGSTSYAQKFQGRVTMTRDTSTSTVYMELSSLRSEDTAVYYCAREEYAPFSAEYFQHWGQGTLVTVSS
VL: not shown
notes: Tested as a Fab made in E. coli: VH cloned in Plasmid A (CH1 constant region, His6 and Flag tags), VL in Plasmid C (kappa constant region); also called H:APF & L:wt; APF triple mutant
For B2, the ECL signal in assay [4] stood at 558; in [5] it was 509; in [6], 80000; in assay [7], 768.

B3: Fab VH1-46_IGHD6-13*01_IGHJ4*01 & O1_IGKJ1*01 (Fab, V domains shown)
VH: QVQLVQSGAEVKKPGASVKVSCKASGYTFTSYYMHWVRQAPGQGLEWMGIINPSGGSTSYAQKFQGRVTMTRDTSTSTVYMELSSLRSEDTAVYYCAREGYSSSWYDYFDYWGQGTLVTVSS
VL: DIVMTQTPLSLPVTPGEPASISCRSSQSLLDSDDGNTYLDWYLQKPGQSPQLLIYTLSYRASGVPDRFSGSGSGTDFTLKISRVEAEDVGVYYCMQRIEFPSWTFGQGTKVEIKR
notes: Germline library Fab expressed in E. coli; VH was cloned into Plasmid A (CH1 constant region, His6 and Flag tags); The kappa VL was cloned into Plasmid C (kappa CL)
On to B3, for which the ECL signal in assay [8] is 2440; in assay [9] it was 2210; in [10] it was 1920; in assay [11] it was 3010; in assay [12] it was 8160; in assay [13], 2220. Further, the ECL signal in [14] amounted to 1920.

B4: Fab VH6-1_IGHD3-3*01_IGHJ4*01 & V4-3_IGLJ4*01 (Fab, V domains shown)
VH: QVQLQQSGPGLVKPSQTLSLTCAISGDSVSSNSAAWNWIRQSPSRGLEWLGRTYYRSKWYNDYAVSVKSRITINPDTSKNQFSLQLNSVTPEDTAVYYCAREYYDFWSGYYTDYFDYWGQGTLVTVSS
VL: QPVLTQPTSLSASPGASARLTCTLRSGINLGSYRIFWYQQKPESPPRYLLSYYSDSSKHQGSGVPSRFSGSKDASSNAGILVISGLQSEDEADYYCMIWHSSASFVFGGGTQLIIL
notes: Tested as a purified germline Fab made in E. coli; The VH was cloned into plasmid A (CH1 constant region, His6 and Flag tags) and the lambda VL into plasmid E (lambda CL)
As for B4, the ECL signal came to 454 in assay [15]; 397 in [16]; 351 in [17]; 690 in assay [18]; 508 in [19].
